# Measured values: patent US20190367626A1
# Positions count from the first letter of the chain named.
# B1: HC1LC3 (antibody, human IgG1, kappa, V domains shown)
# VH: QVQLVQSGAEVKKPGATVKISCKVSGYIFTNNDMNWVQQAPGKGLEWMGGIDPGDGRTKYNEKFKGRVTITADESTSTAYMELSSLRSEDTAVYYCGRGGYEFGIDYWGQGTLVTVSS
# VL: DIVMTQSPDSLAVSLGERATINCKSSQSLLNSGNQKNSLAWYQQRPGHPPKLLLYGASTRESGVPDRFSGSGSGTDFTLTISSLQAEDVAVYYCQNDHSFPLTFGGGTKVEIKR
# B2: HC4LC3 (antibody, human IgG1, kappa, V domains shown)
# VH: B1 VH with Q6E, T17S, I20V, Q38R, K43E, I70M, A72E, E74T, S77D, L113T
# VL: B1 VL
# B3: HC3LC3 (antibody, human IgG1, kappa, V domains shown)
# VH: QVQLVQSGAEVKKPGSSVKVSCKSSGYIFTNNDMNWVRQAPGQGLDWMGGIDPGDGRTKYNEKFKGRVTISADIFSNTAYMELNSLTSEDTAVYFCGRGGYEFGIDYWGQGTTVTVSS
# VL: B1 VL
# B4: HC2LC3 (antibody, human IgG1, kappa, V domains shown)
# VH: QVQLVQSGAEVKKPGASVKVSCKASGYIFTNNDMNWVRQAPGQGLEWMGGIDPGDGRTKYNEKFKGRVTMTRDTSTNTVYMELSSLTSEDTAVYFCGRGGYEFGIDYWGQGTTVTVSS
# VL: B1 VL
# B5: HC0LC0 (antibody, human IgG1, kappa, V domains shown)
# VH: QVQLQQSGPELVKPGASVKISCKASGYIFTNNDMNWVKQRPGQGLEWIGGIDPGDGRTKYNEKFKGKATLTADKFSNTVYMQLSSLTSENSAVYFCGRGGYEFGIDYWGQGTSVTVSS
# VL: DIVMTQSPSSLSVSAGEKVTMSCKSSQSLLNSGNQKNSLAWYQQKPGRPPTLLISGASTRESGVPDRFTGSGSGTDFTLTISSVQAEDLAVYYCQNDHSFPLTFGAGTKLELKR
# Target: TRAILshort (UniProt P50591)
# Sequence (P50591 other isoform, or with tags, fused parts or gaps): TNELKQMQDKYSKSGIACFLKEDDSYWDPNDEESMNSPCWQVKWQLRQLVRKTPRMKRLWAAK
# Assay: SPR
row,Binder,Kd
1,B1,10 pM
2,B2,31 pM
3,B3,4.5 pM
4,B4,3.8 pM
5,B5,3 pM
